# From the domain aggregation screens of Martell et al. (2025)
# Experiment: soluble fraction after stress (log2 fold change); higher = more stays soluble; pooled small domains, quantitative proteomics
# Details: stress: pH 4
# Procedure, shortened: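 Pooled custom libraries of small protein domains were subjected to pH 4 and measured by high-throughput quantitative proteomics. The log2 fold change in soluble amount per domain is reported, higher values meaning more remained soluble. This is used as a measure of aggregation propensity.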
sequence,measurement,value
HMASQVERGAVVVTDQRIFFIGVSSEGIEVHGTKIFGMSEKAPLYSHMKGLKKGDSFQFNGLKYVIQDIY,soluble fraction (log2),-0.916
HMDNMFVEERQALIYEELQSNGRVRVKDLSKKFNVSEDLIRKDLNVLEKEGKLRKIYGGAVLAK,soluble fraction (log2),0.071
HMGEELIEIQNLRNKERREAEAILKNLDLVPVIQEQFDDTVPINRVITTDPGPDSTVKKGTTVMIYVSKGP,soluble fraction (log2),0.289
HMGRKRLADYGLNDTEQKIVRKIADGLSNREIAQALYLSEGTVKNYITDILGKLELRDRTQIAIFYLREIG,soluble fraction (log2),-0.244
HMQYRQRRGLERMELILDAATRVVAEVGYERTTTNAIATRAGISPGSLYQYFSSKEDIASALWERYAE,soluble fraction (log2),-0.251
HMTSSQRDSILEFLKTRKDHPTADVVYMNVRKSFPNISLGTVYRNLTLLSDIGQIAKIRVGDGVDHFDADT,soluble fraction (log2),-0.073
HMTVSGNIAGDYKDYLPQKTDVINGMTVTYRMVDDAVYLASWKHAGQNHVFLFNDPVSVERAREMI,soluble fraction (log2),-0.965
HMDDHLSFLAARLPDGASFDTDFDALGIDSFGMIALRAEVEERLGEQIADSDWTKVERPSEILAMLERK,soluble fraction (log2),-1.76
HMEKIDEDIMDVLKKKAEVSGISLGVLKSIYEKAVKQYKLGHEIGQVKEQYAMQKVNTHLLENK,soluble fraction (log2),0.169
HMETTMVEIKAEFTIRNRLDIPAMMEKAGYKDRGEFLSVLEKITGNYNWDRDVKKGDTFMVPSKLA,soluble fraction (log2),-0.335
HMDHKSSYWSVKEANLFPELLKQFGSQWSLISDKLGTKSTTMVRNYYQRNAAQLGWKSVVEEADFKRNA,soluble fraction (log2),0.0284
HMIEMGNRIRTLRKRRVGSQSEFAEKLDVSVVTISRIENGMTKIDAELLIKMSEVLQVPVNIILGM,soluble fraction (log2),-1.7
HMEPTPREIVVQQLGYRGLEVLGNAEYQFPKETQIIILKLAELISSGSVTETLEGGKLLALFRGVGINVR,soluble fraction (log2),-1.36
HMKGYIGESKARNIALKKAPGASITKFEFDKDDGIAVYEVELRKGIYEYELKINAVTGAIIEFEKDIE,soluble fraction (log2),0.147
HMYEIEDIKEKLLDLLANSKTGFSGLEISNRLGINRITVSKYLNIFSAEGLIKQKNIGNVIIWFVEDGIE,soluble fraction (log2),-0.791
HMAPVEEWAKASVMEDPTLVTETMARIFAQQGQIGKARKAYRHLALTYPAKSTYFAAQLKKLNQR,soluble fraction (log2),0.355
HMNPETPAQQAVRKRLIVSVQFYRRLKDTPLKAVWQVAARDTLVNGYNLFLKRNIHAFNDRTLSTPSALS,soluble fraction (log2),0.089
HMARTLSVTVSENYANMRLDSFLFESGLYPSRSKAVKQIESGKVFVNGNEPTKKTIVVANDFIVYEEYAEE,soluble fraction (log2),-1.15
HMDGEAQTYVEYGKWFPADLPLEAVRQLADGVPVTKELVAALNPRRSEWEEIKAGLDKIGYPNELL,soluble fraction (log2),-0.567
HMPELFLFNPDTASAATFQALGFSARQAGVLIHFREALGGRFGSVEQFSKSYVVDSATLERLRPYMVF,soluble fraction (log2),-0.029
HMEAALTLRVDKAGSLRSLLSDEQYAKTSKIIVSGEINTLDIKTLQEMSGEKGSLQSIDLSQANIVAY,soluble fraction (log2),-0.351
HMSSESIIIKKLIEEFIHNENKYSPLSDEKLSYLLKNKGFSVARRTVAKYRDELGILSTRERKIKI,soluble fraction (log2),0.393
HMDVLKMKVEDLNIGSRTVNSLTAAKIKTVAGLIKKSKESLLELDGMGNKGVEEIILALKKLGLEL,soluble fraction (log2),0.345
HMTILKEGMSGPEVERLQDALKRHGFDPGRVDGQFGPGTEAAILAFQKSEGLRADGVAGPKTQQALGLE,soluble fraction (log2),0.155
HMSVPVNAPMPGTILDIKVKAGAAVKAGDVVMILEAMKMENEISAPQDGTIASIDVRKGDTVNSGDVLYTM,soluble fraction (log2),-0.00195
HMDAKSRFQEWVQAETGITPTYRIIGDSGPDHAKTFIAQVLLGERVVGEGVGSSKRAAEQAAAQAALAAM,soluble fraction (log2),-0.346
HMLSYIELTVDNTSKASYIMTDKMKINNFKIIGNNTIRVYENKVSPQDISRTLSMNNVSIEALGRKS,soluble fraction (log2),-0.253
HMKIKAKYTTDFGIRIYAPKPGKNYWRISYVDLDGKLRDTTATSEKTALDKSAEIEVLLRNN,soluble fraction (log2),-0.232
HMRVLEYTADGSRLDVLLSQDGVLSRSRAAELIKGGAVTVDGRAEGKPSAKPAPGALVRVEVPE,soluble fraction (log2),≥ 0.43
HMERQAEAWTNRASALISLGRDEEALEAADRAIELDPRLSKAWIDRSTALSNLGRNDEANEAIQMAMFL,soluble fraction (log2),-0.962
HMNQDMINFDKLSVRLKNVLIENNLKTVDSLLNYPAEEFEYLTNLGEKTLQELLTYRNELAASNNIQ,soluble fraction (log2),-1.17
HMLSADLLDKIQRIDSLEQQGKYAQAEKEARALLSDPSITPSERASVQNILSSIARKKAAQAQ,soluble fraction (log2),0.0475
HMKVSFEIEINGVTKSINSINEAKEAISELQDIMDNSTFGSEEFKNAATQIDKLQNKLVEALDK,soluble fraction (log2),-1.4
HMSTLGIRIKHYRTDSNLTQKELAGLINVKRDALANWETDRALPDVMNLKKLAEVFQVSTDELLQV,soluble fraction (log2),-0.225
HMSPDALSNLPIGSEIKFTLWDGTEKRLVKHPAAYQFSRPFWMNLNEYTYVPVNRIPKNYEVIRL,soluble fraction (log2),-0.0954
HMSPTSSRAAQARIRKMIESESPLKPISDSQLAARLGEEGISIARRTVAKYREQMNILPASQRRGV,soluble fraction (log2),-0.0284
HMKHYMKITDISLQTRDKNRVNVSVDGKYRFSLDVFQVGELGLKVGREYTDEELTALEDESQFG,soluble fraction (log2),0.0815
HMSHFRMLPSITEADAFLKSRSLPAGLEVREQVDAFLAQARQTLALAQEAPWLSKQEVLETLADEFVQTS,soluble fraction (log2),-1.25
HMQINDSSVVQKAVNDVIDQNSKAVSDYWDGKEGAAKFLMGQVMKLTRGQANPDLANQLILTRLQQERV,soluble fraction (log2),0.182
HMSHGSIYFSGKTGLKGSVDINGTVNSINKKIFLKPGNYNFLIKADGYKNLKGSFQISKGDKKFVELVLIP,soluble fraction (log2),-0.0804
HMFPTLSPEEQRIVDQLAKENDLQANVIALRTALTIPQISALLFSLEMKGMVRLYAGGTYHLI,soluble fraction (log2),-0.142
HMVSMSFDDYVNDAKEYESEGDKDKAYNSYLEAYKLNKSSEEVLDYLIDNTEDVTLKLNYVYEYLDL,soluble fraction (log2),-0.32
HMSQLETEEAKRIVLKDLLRLYNNYNIIELEEDEFDRFITYLNMPYDFLQKTSDYDLAVSIKRMYASY,soluble fraction (log2),-1.79
HMRLARPLTPTEERVLRLLASDMSNAKIGEVLGIRLPTVKSHVSHIMQKLGVTSRAKARTAAQQLGI,soluble fraction (log2),≥ 0.43
HMNMEDIADKIGRLYDNLPDDLKLMIKYRDIDDMTYDEIARKANLPIGTVRSRLHRARDILLREI,soluble fraction (log2),-0.108
HMEALQKVSINYYDEGAGKQIAEVPLEVGAGDTEIALAVINKYMPAEYNLVSTDYQIRGGYVYVSVTPA,soluble fraction (log2),-0.215
HMADLTEEQKTLFRLIRDLQPVSSKTLLENSGFTRSTQTRLLNGLIEKQIVIRTGNGPATRYSLR,soluble fraction (log2),-0.307
HMAAMSLGERIGAHRKRMGISQEELGHRMGVSRQAVSKWETGRAVPDMENLLALARLFGVPVSELAD,soluble fraction (log2),-0.0628
HMGLGDLEVVDSIGKIRRDGQQMILAFGRHKGRDVQEVYNEDPRYINWLLSPKGIEDENGRGKVRDYLGIN,soluble fraction (log2),-0.678
HMQPIAVHIGTENPMKSLSDLSVVRAQFTSGGRVIGSVAVLGPTRMQYSRIVGMMRFMQQRLDLLLKG,soluble fraction (log2),-0.0772
HMRPIDEVFGFFSRPENLTVITPSNLHFNILTPRPLEMKQGAVIDYTIKIFKVPIHWRTLITTYDPPFKFV,soluble fraction (log2),-0.399
HMNVNFVQANLANLPNIQAIYQKGNEMLNDMKRGEAREIDEAYSRVDNGVGTEKDFKVLLSFRDKIIAAMQ,soluble fraction (log2),≥ 0.43
HMSSKYLKIYNDIVGKIDSGIFEANTKLPSESQLMDEYNVSRYTVRKSLNLLEQNGYIEKSKGKGSFVLDM,soluble fraction (log2),-0.1
HMNLFNEIEKQYQALQDRSSASLVDLRHLLLDIEELVNSPDYQALAPDQRSTLQAARKELMRRIQKQEN,soluble fraction (log2),-0.193
HMIAVLEEGSHFRAVNDVTGKPFGPEMVIKNGQVTAVGKTISTKPKNLLGKKEGTKFVISGKQYVIKDI,soluble fraction (log2),-0.103
HMSYQNKLNYLINAFGGADNFQKLLGVGPSAISNYKSRKHLPLNQAKRLSKIAPQFGFSLDPHSLQIST,soluble fraction (log2),0.0613
HMSAERFDFRIGPELAGKRFDQALAEALPQFSRSRLSTWIKDGRATLNGATMRPKDSVHAGDTVVVNAE,soluble fraction (log2),0.255
HMETLSVRERMTSIISLLNKHEDIEFSKLFNISEGRLGVVVTFLALLELVKESLVDVIQNQPMSKLYIGKK,soluble fraction (log2),-0.376
HMIAKEDDGTAFLIDGKISSEEEFKTISKDDILEVFVYKETEIAQKKLDSINSINNTYYTSLIEILLKE,soluble fraction (log2),-0.854
HMVTINTASLEKAIADAKAVVKESYTTDSYNAMKAVLDEAEDLLKEEAQDQDTIDAKTEALNAAIEALVKR,soluble fraction (log2),-0.337
HMAEWIYGKNVVKQSIEEGMVLKLILQRKEDPLFVLAQEKQIPVEILDRHKMTSLVKSDRHQGVAAQI,soluble fraction (log2),-0.645
HMTAEVIYVDVGGEVNQPSVVELTDGSRVTDAIAAAGGLTEKADLTDINRAAFVSDGEKIFIPSQEE,soluble fraction (log2),-0.385
HMQPYTYNPNFLSDYRAYSLGIPLEAYDKLVQFRASGSFVNSMSDFQKITGVSDSLLAVLHSKFRYPK,soluble fraction (log2),-0.602
HMLVSFGDHLKRYIYERAGIEEPFGEVPQEIYRDIAVDSFRETYTPKSMNPTSTKLPALVNNWLIQ,soluble fraction (log2),-0.388
HMERGEFQKLGRATLEQTLARAGKTLAEVSLKAMLETFAFAAEEDLYEALGRGRVSAAKVGETLFPALKGR,soluble fraction (log2),-0.942
HMEQGDTQQEIREKILNLLADGERHMITELKNIRTDQPIDDDKIVGKTLKTLLDEEEVYMDGSYIQLNG,soluble fraction (log2),-0.997
HMGSEYILTIIPTPADATVFINGVKKNSASGVNGQILSWEVTKEGYIPQSGTFTINGKNETIEVVLQPQT,soluble fraction (log2),-0.577
HMTFPTEAKLTGDKVFVRSGPSTQSQRLTNLAINSVVTVLAREMGDMQYPWYKVRYSDGEGWVYGQYVEAI,soluble fraction (log2),0.122
HMIYKLIADRLKNRINSDEFEVGDALPSEKALAGELEVSVMTIRKALTLLESEKLIVKRHGSGSYVARKSN,soluble fraction (log2),0.0567
HMTGQVASMVERLAQRLKDQPQDAEGWAMLARSYSVLGRHPEALQAYEKALALRKDDANLLADYADSLA,soluble fraction (log2),-0.729
HMDGVEVVTKPAGAQIEFAGKSYGPSPVHIPGLVAGSQLILRLPGFQAATVRLRTAPDKSKALEYTLQPA,soluble fraction (log2),-0.0155
HMKSPAQAAALKKLWAAIKQNEQGEVVEVLFHNRKLTDAGLVHLKGLANLQTLNLYDTKITGAGLVHL,soluble fraction (log2),-0.0712
HMGRAAEETETFRTQGELDARIKELQGQMRDAAANLEFERAAGLRDTLKRLRTRGLGLSASP,soluble fraction (log2),-0.0313
HMEEVIEVEGKITAVLPSTMFRAELENGHQVLAHISGKLRKHFIKITVGDIVKMEMSTQDLQKARIV,soluble fraction (log2),-0.831
HMNPEAFIQTLKQILSTYEKNDPIYLQEIKADLVKKFRIEIPINALETYLKENGYSNIYLKR,soluble fraction (log2),-0.516
